B1: Syntenin-1 (Homo sapiens), O00560 (parent)
chain: MSLYPSLEDLKVDKVIQAQTAFSANPANPAILSEASAPIPHDGNLYPRLYPELSQYMGLSLNEEEIRANVAVVSGAPLQGQLVARPSSINYMVAPVTGNDVGIRRAEIKQGIREVILCKDQDGKIGLRLKSIDNGIFVQLVQANSPASLVGLRFGDQVLQINGENCAGWSSDKAHKVLKQAFGEKITMTIRDRPFERTITMHKDSTGHVGFIFKNGKITSIVKDSSAARNGLLTEHNICEINGQNVIGLKDSQIADILSTSGTVVTITIMPAFIFEHIIKRMAPSIMKSLMDHTIPEV
B2: Origin recognition complex subunit 6 (Homo sapiens), Q9Y5N6 (parent)
chain: MGSELIGRLAPRLGLAEPDMLRKAEEYLRLSRVKCVGLSARTTETSSAVMCLDLAASWMKCPLDRAYLIKLSGLNKETYQSCLKSFECLLGLNSNIGIRDLAVQFSCIEAVNMASKILKSYESSLPQTQQVDLDLSRPLFTSAALLSACKILKLKVDKNKMVATSGVKKAIFDRLCKQLEKIGQQVDREPGDVATPPRKRKKIVVEAPAKEMEKVEEMPHKPQKDEDLTQDYEEWKRKILENAASAQKATAE
partner: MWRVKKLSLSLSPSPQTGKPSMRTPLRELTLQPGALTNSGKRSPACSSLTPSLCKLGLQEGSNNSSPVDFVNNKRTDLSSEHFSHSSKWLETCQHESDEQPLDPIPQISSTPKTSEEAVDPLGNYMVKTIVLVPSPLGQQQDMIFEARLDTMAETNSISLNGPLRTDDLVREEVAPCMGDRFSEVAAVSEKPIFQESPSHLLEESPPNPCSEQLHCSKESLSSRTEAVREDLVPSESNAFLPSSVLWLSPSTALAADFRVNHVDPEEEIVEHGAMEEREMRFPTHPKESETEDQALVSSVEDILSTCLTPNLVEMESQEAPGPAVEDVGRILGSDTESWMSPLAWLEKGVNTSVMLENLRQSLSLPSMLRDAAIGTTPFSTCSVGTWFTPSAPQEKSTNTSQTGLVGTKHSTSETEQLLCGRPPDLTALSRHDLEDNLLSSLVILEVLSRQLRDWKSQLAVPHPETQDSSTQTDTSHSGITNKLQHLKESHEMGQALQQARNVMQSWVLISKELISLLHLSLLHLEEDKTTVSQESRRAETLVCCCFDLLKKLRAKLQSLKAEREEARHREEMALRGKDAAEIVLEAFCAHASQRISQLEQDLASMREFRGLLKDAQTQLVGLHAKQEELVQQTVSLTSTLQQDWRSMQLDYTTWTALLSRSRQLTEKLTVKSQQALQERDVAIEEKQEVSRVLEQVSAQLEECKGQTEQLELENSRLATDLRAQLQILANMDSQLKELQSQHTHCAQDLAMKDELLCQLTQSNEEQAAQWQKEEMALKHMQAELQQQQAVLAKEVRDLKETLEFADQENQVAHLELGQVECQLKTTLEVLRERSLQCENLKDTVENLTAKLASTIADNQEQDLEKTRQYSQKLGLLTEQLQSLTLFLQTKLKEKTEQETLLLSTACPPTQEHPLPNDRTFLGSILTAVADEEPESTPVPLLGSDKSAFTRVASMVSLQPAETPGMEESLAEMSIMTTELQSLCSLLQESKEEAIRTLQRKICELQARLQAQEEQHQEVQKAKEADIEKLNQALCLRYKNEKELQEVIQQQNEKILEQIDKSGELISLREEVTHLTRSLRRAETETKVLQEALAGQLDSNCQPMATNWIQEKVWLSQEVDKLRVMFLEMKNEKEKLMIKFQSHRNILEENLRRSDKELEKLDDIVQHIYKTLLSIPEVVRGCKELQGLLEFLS
B3: Protein FAM167A (Homo sapiens), Q96KS9 (parent)
chain: MSVPQIHVEEVGAEEGAGAAAPPDDHLRSLKALTEKLRLETRRPSYLEWQARLEEHTWPFPRPAAEPQASLEEGERGGQEPLLPLREAGQHPPSARSASQGARPLSTGKLEGFQSIDEAIAWLRKELTEMRLQDQQLARQLMRLRGDINKLKIEHTCRLHRRMLNDATYELEERDELADLFCDSPLASSFSLSTPLKLIGVTKMNINSRRFSLC
partner: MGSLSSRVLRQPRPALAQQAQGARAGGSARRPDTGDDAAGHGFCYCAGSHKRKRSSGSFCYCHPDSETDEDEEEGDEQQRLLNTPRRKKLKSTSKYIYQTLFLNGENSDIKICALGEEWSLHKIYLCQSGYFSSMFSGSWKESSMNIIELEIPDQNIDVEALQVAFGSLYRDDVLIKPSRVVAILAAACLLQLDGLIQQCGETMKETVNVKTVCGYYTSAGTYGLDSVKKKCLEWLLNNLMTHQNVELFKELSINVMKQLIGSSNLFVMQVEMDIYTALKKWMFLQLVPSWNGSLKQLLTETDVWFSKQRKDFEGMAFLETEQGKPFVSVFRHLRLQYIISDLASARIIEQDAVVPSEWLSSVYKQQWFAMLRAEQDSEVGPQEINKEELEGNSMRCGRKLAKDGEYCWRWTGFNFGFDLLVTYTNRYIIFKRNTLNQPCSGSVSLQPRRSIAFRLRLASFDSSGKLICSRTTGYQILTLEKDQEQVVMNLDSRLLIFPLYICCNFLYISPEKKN
B4: Segment polarity protein dishevelled homolog DVL-2 (Homo sapiens), O14641 (parent)
chain: MAGSSTGGGGVGETKVIYHLDEEETPYLVKIPVPAERITLGDFKSVLQRPAGAKYFFKSMDQDFGVVKEEISDDNARLPCFNGRVVSWLVSSDNPQPEMAPPVHEPRAELAPPAPPLPPLPPERTSGIGDSRPPSFHPNVSSSHENLEPETETESVVSLRRERPRRRDSSEHGAGGHRTGGPSRLERHLAGYESSSTLMTSELESTSLGDSDEEDTMSRFSSSTEQSSASRLLKRHRRRRKQRPPRLERTSSFSSVTDSTMSLNIITVTLNMEKYNFLGISIVGQSNERGDGGIYIGSIMKGGAVAADGRIEPGDMLLQVNDMNFENMSNDDAVRVLRDIVHKPGPIVLTVAKCWDPSPQAYFTLPRNEPIQPIDPAAWVSHSAALTGTFPAYPGSSSMSTITSGSSLPDGCEGRGLSVHTDMASVTKAMAAPESGLEVRDRMWLKITIPNAFLGSDVVDWLYHHVEGFPERREARKYASGLLKAGLIRHTVNKITFSEQCYYVFGDLSGGCESYLVNLSLNDNDGSSGASDQDTLAPLPGATPWPLLPTFSYQYPAPHPYSPQPPPYHELSSYTYGGGSASSQHSEGSRSSGSTRSDGGAGRTGRPEERAPESKSGSGSESEPSSRGGSLRRGGEASGTSDGGPPPSRGSTGGAPNLRAHPGLHPYGPPPGMALPYNPMMVVMMPPPPPPVPPAVQPPGAPPVRDLGSVPPELTASRQSFHMAMGNPSEFFVDVM
partner: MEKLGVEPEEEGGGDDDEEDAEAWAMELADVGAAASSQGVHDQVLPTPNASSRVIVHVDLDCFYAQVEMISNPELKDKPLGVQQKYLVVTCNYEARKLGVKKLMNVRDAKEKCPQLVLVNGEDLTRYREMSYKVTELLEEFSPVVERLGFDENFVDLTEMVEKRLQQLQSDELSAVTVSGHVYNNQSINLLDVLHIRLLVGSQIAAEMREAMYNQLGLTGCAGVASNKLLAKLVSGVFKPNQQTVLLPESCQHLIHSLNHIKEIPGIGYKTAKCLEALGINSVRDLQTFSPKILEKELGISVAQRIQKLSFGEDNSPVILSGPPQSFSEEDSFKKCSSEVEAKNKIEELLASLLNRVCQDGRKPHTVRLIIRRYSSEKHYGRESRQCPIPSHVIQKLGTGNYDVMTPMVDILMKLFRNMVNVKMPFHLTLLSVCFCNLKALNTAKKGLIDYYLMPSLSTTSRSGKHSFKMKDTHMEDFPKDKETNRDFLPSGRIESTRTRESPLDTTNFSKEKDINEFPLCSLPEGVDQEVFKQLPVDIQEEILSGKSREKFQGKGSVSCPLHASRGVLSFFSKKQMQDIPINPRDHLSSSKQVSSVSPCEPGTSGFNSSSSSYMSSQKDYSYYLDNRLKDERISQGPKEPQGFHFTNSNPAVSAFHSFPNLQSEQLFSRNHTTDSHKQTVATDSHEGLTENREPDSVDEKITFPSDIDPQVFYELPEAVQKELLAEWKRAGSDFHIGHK
B5: Protein mab-21-like 3 (Homo sapiens), Q8N8X9 (parent)
chain: MKYLTVGDLEDCLLNKVDLRRQQISQAVEEVQKVVHHLTTNISNQDIRFQAVPYSDTYNENIKVLAPSQFLVTVPIKGLAGYREAREQHWRYYTLQGTRLPCPLRDPEGLQQWLEVEQFMKSLWQWHETDVNIDGDIVPAKVLLVFRKLVENAVRTCHLSGKVSLLGNRSAVWVAVETSAYQVELELVPAVEIPTTWSKKARWPRCLQRWPSQERVECIKSFGFNLLACSNYHWQLSFLRAEQVLLEQLDEDGGCRRKCFQVMRHLKEDIWCPGNRPVITSHHLQTVLFWTCEKYPHFKDWQVFSKAFLRLVRKLHKCVSQHFLKHYFVRNSNLFQCTNPTELDTVAQKLATFLKNPQIGPP
partner: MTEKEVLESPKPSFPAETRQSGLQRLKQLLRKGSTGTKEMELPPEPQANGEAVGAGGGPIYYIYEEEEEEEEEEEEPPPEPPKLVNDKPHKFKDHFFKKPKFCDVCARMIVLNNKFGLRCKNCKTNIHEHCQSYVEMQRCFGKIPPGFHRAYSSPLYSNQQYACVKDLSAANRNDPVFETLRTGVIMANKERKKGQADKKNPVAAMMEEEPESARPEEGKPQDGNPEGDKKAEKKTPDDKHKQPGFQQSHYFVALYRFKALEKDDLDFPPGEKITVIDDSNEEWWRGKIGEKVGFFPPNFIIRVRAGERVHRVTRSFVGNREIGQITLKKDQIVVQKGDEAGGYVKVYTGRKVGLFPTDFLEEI
B6: Cdc42 effector protein 4 (Homo sapiens), Q9H3Q1 (parent)
chain: MPILKQLVSSSVHSKRRSRADLTAEMISAPLGDFRHTMHVGRAGDAFGDTSFLNSKAGEPDGESLDEQPSSSSSKRSLLSRKFRGSKRSQSVTRGEREQRDMLGSLRDSALFVKNAMSLPQLNEKEAAEKGTSKLPKSLSSSPVKKANDGEGGDEEAGTEEAVPRRNGAAGPHSPDPLLDEQAFGDLTDLPVVPKATYGLKHAESIMSFHIDLGPSMLGDVLSIMDKEEWDPEEGEGGYHGDEGAAGTITQAPPYAVAAPPLARQEGKAGPDLPSLPSHALEDEGWAAAAPSPGSARSMGSHTTRDSSSLSSCTSGILEERSPAFRGPDRARAAVSRQPDKEFSFMDEEEEDEIRV
B7: Isoform 1 of Protein quaking (Homo sapiens), Q96PU8-1 (parent)
chain: MVGEMETKEKPKPTPDYLMQLMNDKKLMSSLPNFCGIFNHLERLLDEEISRVRKDMYNDTLNGSTEKRSAELPDAVGPIVQLQEKLYVPVKEYPDFNFVGRILGPRGLTAKQLEAETGCKIMVRGKGSMRDKKKEEQNRGKPNWEHLNEDLHVLITVEDAQNRAEIKLKRAVEEVKKLLVPAAEGEDSLKKMQLMELAILNGTYRDANIKSPALAFSLAATAQAAPRIITGPAPVLPPAALRTPTPAGPTIMPLIRQIQTAVMPNGTPHPTAAIVPPGPEAGLIYTPYEYPYTLAPATSILEYPIEPSGVLGAVATKVRRHDMRVHPYQRIVTADRAATGN

Variants of: B1
Settings: with cryaa_human CRYAA

Row | effect of a mutation on the interaction | Variant
1 | with no effect | K124R

Variants of: B1
Settings: with cox41_human COX4I1, P13073
Sequence of cox41_human COX4I1, P13073 (P13073 whole entry): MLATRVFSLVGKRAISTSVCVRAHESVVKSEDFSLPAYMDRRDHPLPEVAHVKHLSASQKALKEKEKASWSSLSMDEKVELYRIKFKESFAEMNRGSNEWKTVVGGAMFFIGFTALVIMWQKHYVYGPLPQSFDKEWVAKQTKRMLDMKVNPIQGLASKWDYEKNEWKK

Row | effect of a mutation on the interaction | Variant
2 | with no effect | K124R

Variants of: B1
Settings: with frih_human FTH1, P02794

Row | effect of a mutation on the interaction | Variant
3 | with no effect | K124R

Variants of: B2
Settings: with spag5_human SPAG5, Q96R06

Row | effect of a mutation on the interaction | Variant
4 | with no effect | K201N

Variants of: B3
Settings: with gmcl1_human GMCL1, Q96IK5

Row | effect of a mutation on the interaction | Variant
5 | with no effect | S99T

Variants of: B4
Settings: with poli_human POLI

Row | effect of a mutation on the interaction | Variant
6 | with no effect | A53V
7 | with no effect | T535I

Variants of: B5
Settings: with stac3_human STAC3, Q96MF2

Row | effect of a mutation on the interaction | Variant
8 | with no effect | T338A

Variants of: B6
Settings: with fam9b_human FAM9B

Row | effect of a mutation on the interaction | Variant
9 | with no effect | M102V

Variants of: B7
Settings: with hnrpk_human HNRNPK

Row | effect of a mutation on the interaction | Variant
10 | with no effect | R336Q

Variants of: B7
Settings: with fubp3_human FUBP3, Q96I24
Sequence of fubp3_human FUBP3, Q96I24 (Q96I24 whole entry): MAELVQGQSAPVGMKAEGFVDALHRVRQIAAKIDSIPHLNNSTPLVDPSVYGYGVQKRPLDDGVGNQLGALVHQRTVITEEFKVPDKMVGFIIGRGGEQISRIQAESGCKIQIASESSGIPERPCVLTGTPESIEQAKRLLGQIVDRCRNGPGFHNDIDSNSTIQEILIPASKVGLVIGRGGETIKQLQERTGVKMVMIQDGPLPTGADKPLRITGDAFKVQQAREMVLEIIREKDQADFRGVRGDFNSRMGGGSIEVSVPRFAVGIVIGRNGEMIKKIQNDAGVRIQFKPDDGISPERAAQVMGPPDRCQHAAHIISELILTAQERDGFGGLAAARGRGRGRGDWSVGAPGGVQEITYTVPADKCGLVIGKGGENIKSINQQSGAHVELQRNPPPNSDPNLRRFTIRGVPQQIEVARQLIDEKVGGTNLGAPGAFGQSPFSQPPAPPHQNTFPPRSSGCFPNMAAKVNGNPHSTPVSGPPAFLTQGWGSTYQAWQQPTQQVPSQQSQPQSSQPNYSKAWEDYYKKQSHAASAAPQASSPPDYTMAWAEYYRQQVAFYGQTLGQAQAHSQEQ

Row | effect of a mutation on the interaction | Variant
11 | with no effect | R336Q

Variants of: B7
Settings: with rbpms_human RBPMS

Row | effect of a mutation on the interaction | Variant
12 | with no effect | R336Q
